Reference: publication PMC2134809

Target: profilin (Acanthamoeba)
Test: affinity chromatography

Arp2/3 complex, sequence (P53487 whole entry, looked up, one chain of several): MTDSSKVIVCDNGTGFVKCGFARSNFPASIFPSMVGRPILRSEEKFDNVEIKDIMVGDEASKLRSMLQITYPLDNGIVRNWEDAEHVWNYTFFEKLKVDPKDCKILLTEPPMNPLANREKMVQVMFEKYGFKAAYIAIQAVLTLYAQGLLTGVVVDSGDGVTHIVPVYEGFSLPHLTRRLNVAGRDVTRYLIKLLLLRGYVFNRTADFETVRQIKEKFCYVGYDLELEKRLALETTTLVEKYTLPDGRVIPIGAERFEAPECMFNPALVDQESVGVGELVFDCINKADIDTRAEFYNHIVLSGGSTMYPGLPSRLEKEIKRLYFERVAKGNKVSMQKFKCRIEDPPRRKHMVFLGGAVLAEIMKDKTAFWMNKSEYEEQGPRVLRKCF

percent of the complex bound to the column that holds profilin: 10%
Substance: Arp2/3 complex (from UniProt P53487 1-388)
